Publication PMC3433432

Tests used:
[1] = target: L17C APP-eGFP (human APP751 with leucine 17 of the Aβ sequence mutated to cysteine, fused to eGFP) (human); assay: FRET or BRET; homoFRET by tr-FAIM under TIRF excitation (s polarized light), at the plasma membrane; objective 60x NA 1.49; living HEK293 cells, 37°C, 5% CO2
[2] = target: L17C APP-eGFP (human APP751 with leucine 17 of the Aβ sequence mutated to cysteine, fused to eGFP) (human); assay: FRET or BRET; homoFRET by time-resolved fluorescence anisotropy imaging (tr-FAIM), epifluorescence excitation, objective 60x NA 1.49, xNA = 1.2; living HEK293 cells, 37°C, 5% CO2
[3] = target: enhanced Green Fluorescent Protein (eGFP), cytosolic; assay: as above

“L17C APP-eGFP (human APP751 with leucine 17 of the Aβ sequence mutated to cysteine, fused to eGFP) (natural protein)” showed a depolarization time associated with energy transfer (homoFRET) [1] of 5.4 ns and a depolarization time associated with energy transfer (homoFRET) [2] of 2.4 ns.

With “enhanced Green Fluorescent Protein (eGFP), cytosolic” the proportion of molecules in interaction (homoFRET) [3] was 6.6%.
